Test results published in paper PMC9047069, “Multifaceted Activities of Seven Nanobodies against Complement C4b” (The Journal of Immunology Author Choice, 2022).

Legend:
human complement C4b [1] = target: T1, human complement C4b (human, UniProt P0C0L4, biotin (EZ link Maleimide-PEG2-Biotin) coupled to its thiol group, only where C4b was held on the SPR chip); experiment: SPR; biotinylated nanobodies (100 nM) spotted on a streptavidin chip; kinetic titration with C4b as analyte, five-step twofold dilution without regeneration, last dissociation 1 h; 20 mM HEPES pH 7.4, 150 mM NaCl, 3 mM MgCl2; NbE11 and NbH11 fitted with mass transport; duplicate; conditions: both partners purified
T1 construct: beta chain (75 kDa) of human complement C4; alpha' chain (87 kDa) of human C4b, the alpha chain of C4 after removal of C4a; gamma chain (33 kDa) of human complement C4; One molecule for unlabelled C4b (SEC, cryo-EM, analyte in SPR), C4b biotinylated at the thiol (ligand in SPR) and C4b deposited on erythrocytes from serum; The CTC domain is not in the deposited models; source: bought: Complement …

human complement C4b [2] = target: T1, human complement C4b; experiment: SPR; biotinylated C4b (50 nM) spotted on a planar streptavidin chip through its thiol group; nanobodies injected in a 14-step twofold dilution series; IBIS-MX96; 20 mM HEPES pH 7.4, 150 mM NaCl, 3 mM MgCl2; simple bimolecular model, NbE3 with mass transport; duplicate; conditions: both partners purified

T1 sequence (P0C0L4 20-675, chain 1 of 3): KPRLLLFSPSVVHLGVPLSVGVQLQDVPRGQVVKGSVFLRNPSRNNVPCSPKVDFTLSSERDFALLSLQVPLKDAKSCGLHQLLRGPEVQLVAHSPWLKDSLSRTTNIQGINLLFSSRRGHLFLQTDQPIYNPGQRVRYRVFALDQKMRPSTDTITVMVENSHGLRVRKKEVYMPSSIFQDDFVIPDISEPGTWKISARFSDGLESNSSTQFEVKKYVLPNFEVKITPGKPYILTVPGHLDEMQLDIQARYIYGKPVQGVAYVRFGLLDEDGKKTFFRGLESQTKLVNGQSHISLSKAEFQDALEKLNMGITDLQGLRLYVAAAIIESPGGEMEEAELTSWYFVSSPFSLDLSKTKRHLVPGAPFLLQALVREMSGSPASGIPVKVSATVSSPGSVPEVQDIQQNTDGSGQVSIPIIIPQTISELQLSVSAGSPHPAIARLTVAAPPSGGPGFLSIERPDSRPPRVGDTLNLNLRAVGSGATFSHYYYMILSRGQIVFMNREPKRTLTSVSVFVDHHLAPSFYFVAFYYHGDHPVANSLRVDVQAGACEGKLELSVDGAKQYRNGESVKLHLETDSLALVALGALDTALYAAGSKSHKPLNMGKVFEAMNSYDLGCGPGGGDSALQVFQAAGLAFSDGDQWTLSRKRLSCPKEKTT
T1 sequence (P0C0L4 757-1446, chain 2 of 3): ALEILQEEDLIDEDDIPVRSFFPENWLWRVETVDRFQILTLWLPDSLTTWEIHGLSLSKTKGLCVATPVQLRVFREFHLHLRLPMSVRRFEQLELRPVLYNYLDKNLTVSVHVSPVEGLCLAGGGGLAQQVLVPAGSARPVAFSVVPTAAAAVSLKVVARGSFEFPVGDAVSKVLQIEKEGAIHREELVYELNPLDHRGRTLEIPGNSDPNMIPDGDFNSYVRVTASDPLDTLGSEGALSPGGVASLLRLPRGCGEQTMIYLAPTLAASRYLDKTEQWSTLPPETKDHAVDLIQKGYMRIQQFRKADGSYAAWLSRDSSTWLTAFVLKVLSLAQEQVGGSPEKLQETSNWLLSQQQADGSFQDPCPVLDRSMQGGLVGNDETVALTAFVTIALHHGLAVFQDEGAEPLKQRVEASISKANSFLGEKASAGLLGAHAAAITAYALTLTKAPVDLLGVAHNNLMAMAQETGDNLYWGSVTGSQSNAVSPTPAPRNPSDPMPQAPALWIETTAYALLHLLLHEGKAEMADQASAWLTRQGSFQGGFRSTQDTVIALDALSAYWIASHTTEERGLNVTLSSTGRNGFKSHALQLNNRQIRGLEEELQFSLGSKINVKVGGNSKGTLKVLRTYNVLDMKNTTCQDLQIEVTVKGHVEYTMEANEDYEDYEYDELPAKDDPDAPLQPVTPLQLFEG
T1 sequence (P0C0L4 1454-1744, chain 3 of 3): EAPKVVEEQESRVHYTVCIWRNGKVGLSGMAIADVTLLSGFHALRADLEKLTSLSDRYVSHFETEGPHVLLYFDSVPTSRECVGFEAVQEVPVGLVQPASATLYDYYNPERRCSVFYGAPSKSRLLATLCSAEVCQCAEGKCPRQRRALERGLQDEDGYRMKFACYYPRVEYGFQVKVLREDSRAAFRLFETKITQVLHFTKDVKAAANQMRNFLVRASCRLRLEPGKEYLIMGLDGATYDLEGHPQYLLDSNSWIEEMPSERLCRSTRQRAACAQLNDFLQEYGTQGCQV

Binder	Kd (human complement C4b [1]) [nM]	koff (human complement C4b [1]) [s⁻¹]	Kd (human complement C4b [2]) [nM]	koff (human complement C4b [2]) [s⁻¹]
NbB12 (VHH, Vector: modified pHEN6 with thrombin cleavage site and 6xHis, N-terminal pelB leader; no cleavage of the tag is told; also called NbB12-AF488; source: E. coli BL21 Codon Plus (DE3)-RIL, periplasm, purified (Ni-NTA, SEC)) VHH: EVQLVESGGGLVQAGGSLRLSCVASERTYMAWFRQAPGKEREFVAAITSSGMMTEYAPSVKGRFTISRDNAKNTVYLQMNSLKPEDTAVYYCAADLRQRFGERVTEYDYWGQGTQVTVSS	0.014 ± 0.004	3.8e-06	–	–
NbE3 (VHH, Vector: modified pHEN6 with thrombin cleavage site and 6xHis, N-terminal pelB leader; no cleavage of the tag is told; also called NbBE3; source: E. coli BL21 Codon Plus (DE3)-RIL, periplasm, purified (Ni-NTA, SEC)) VHH: EVQLVESGGGLVQAGGSLRLSCAASGSDFSANAVGWYRQAPGKQRVVVASISSTGNTKYSNSVKGRFTISRDNAKNTVYLQMNSLKPEDTAVYYCWLFRFGIENYWGQGTQVTVSS	–	–	0.318 ± 0.01	0.0066
NbB5 (VHH, Vector: modified pHEN6 with thrombin cleavage site and 6xHis, N-terminal pelB leader for periplasmic secretion; no cleavage of the tag is told; source: E. coli BL21 Codon Plus (DE3)-RIL, periplasm, purified (Ni-NTA, SEC)) VHH: EVQLVESGGGLVQPGGSLRLSCAASGFTFSSYHMSWVRQAPGKGLEWISVINDSGDLTRYADSVKGRFTISRDNAKNTLYLQMNSLQPEDTAVYSCLKSSDFYSYSNADSRGQGTQVTVSS	0.067 ± 0.006	1.3e-05	–	–
